From patent US20220017635A1

B1: 16F6v4 (antibody, from another filing, V domains shown)
VH: EVQLVESGPGLVKPSETLSLTCTVSGNSITSEYAWNWIRQPPGKGLEWIGYISYSGTTSYNPSLKSRVTISRDTSKNQLSLKLSSVTAADTAVYYCARYGYGNPATRYFDVWGQGTLVTVSS
VL: DIQMTQSPSSLSASVGDRVTITCRASKSISKYLAWYQQKPGKTNKLLLYSGSTLQSGVPSRFSGSGSGTDYTLTISSLQPEDFATYYCQQHNEYPWTFGQGTKVEIK
B2: 7A4v15 (antibody, from another filing, V domains shown)
VH: EVQLVQSGAEVKKPGASVKVSCKGSGYTFTDYAMHWVRQAPGQGLEWMGGISTYFGRTNYNQKFKGRVTMTVDTSISTAYMELSRLRSDDTAVYYCARGLSGNYVMDYWGQGTTVTVSS
VL: DIVMTQSPDSLAVSLGERATINCRASESVDSYGNSFMHWYQQKPGQPPKLLIYRASNLESGVPDRFSGSGSRTDFTLTISSLQAEDVAVYYCQQSNEAPPTFGQGTKLEIK
B3: 15G11v5 (antibody, from another filing, V domains shown)
VH: EVQLVQSGAEVKKPGASVKVSCKASGYTFTSYWMHWVRQAPGQRLEWIGEINPTNGRTNYIEKFKSRATLTVDKSASTAYMELSSLRSEDTAVYYCARGTRAYHYWGQGTMVTVSS
VL: DIQMTQSPSSLSASVGDRVTITCRASDNLYSNLAWYQQKPGKSPKLLVYDATNLADGVPSRFSGSGSGTDYTLTISSLQPEDFATYYCQHFWGTPLTFGQGTKVEIK

What was measured:
[1] = target: chimeric TfR A02 (human/mouse chimera) (UniProt P02786); test: ELISA on immobilized chimeric TfR
[2] = target: huTfR with mouse apical domain (human/mouse chimera) (UniProt P02786); test: ELISA on immobilized chimeric TfR
[3] = target: huTfR with mouse protease-like domain (human/mouse chimera); test: ELISA on immobilized chimeric TfR; grade = binding relative to His-huTfR (++ 0.5 or more, + 0.2 to less than 0.5)
[4] = target: chimeric TfR A07 (human/mouse chimera) (UniProt P02786); test: as above
[5] = target: chimeric TfR A04 (human/mouse chimera) (UniProt P02786); test: as above
[6] = target: chimeric TfR A03 (human/mouse chimera) (UniProt P02786); test: as above
[7] = target: chimeric TfR A14 (human/mouse chimera) (UniProt P02786); test: as above
[8] = target: chimeric TfR A05 (human/mouse chimera) (UniProt P02786); test: as above
[9] = target: chimeric TfR A04 (human/mouse chimera) (UniProt P02786); test: ELISA on immobilized chimeric TfR
[10] = target: chimeric TfR A03 (human/mouse chimera) (UniProt P02786); test: ELISA on immobilized chimeric TfR

Sequence of chimeric TfR A02 (human/mouse chimera) (P02786 other isoform, or with tags, fused parts or gaps mutant): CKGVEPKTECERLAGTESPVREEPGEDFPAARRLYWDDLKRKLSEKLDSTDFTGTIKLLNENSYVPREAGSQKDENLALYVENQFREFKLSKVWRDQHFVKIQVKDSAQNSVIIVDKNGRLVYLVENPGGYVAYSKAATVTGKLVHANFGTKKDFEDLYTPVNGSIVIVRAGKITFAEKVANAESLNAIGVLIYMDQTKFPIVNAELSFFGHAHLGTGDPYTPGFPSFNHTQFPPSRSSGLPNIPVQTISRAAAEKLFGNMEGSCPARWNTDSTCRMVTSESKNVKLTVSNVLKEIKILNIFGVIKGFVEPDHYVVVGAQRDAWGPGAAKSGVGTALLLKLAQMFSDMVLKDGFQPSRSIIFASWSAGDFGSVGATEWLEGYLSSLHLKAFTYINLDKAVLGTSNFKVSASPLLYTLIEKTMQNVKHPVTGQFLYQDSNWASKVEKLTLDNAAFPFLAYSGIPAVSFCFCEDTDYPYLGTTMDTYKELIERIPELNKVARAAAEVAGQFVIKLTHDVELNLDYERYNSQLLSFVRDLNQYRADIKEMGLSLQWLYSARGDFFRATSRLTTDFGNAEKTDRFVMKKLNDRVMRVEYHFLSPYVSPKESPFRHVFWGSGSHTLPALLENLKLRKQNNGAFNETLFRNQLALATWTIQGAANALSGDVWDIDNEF
Sequence of huTfR with mouse protease-like domain (human/mouse chimera) (chain, as listed by the source mutant limits assumed): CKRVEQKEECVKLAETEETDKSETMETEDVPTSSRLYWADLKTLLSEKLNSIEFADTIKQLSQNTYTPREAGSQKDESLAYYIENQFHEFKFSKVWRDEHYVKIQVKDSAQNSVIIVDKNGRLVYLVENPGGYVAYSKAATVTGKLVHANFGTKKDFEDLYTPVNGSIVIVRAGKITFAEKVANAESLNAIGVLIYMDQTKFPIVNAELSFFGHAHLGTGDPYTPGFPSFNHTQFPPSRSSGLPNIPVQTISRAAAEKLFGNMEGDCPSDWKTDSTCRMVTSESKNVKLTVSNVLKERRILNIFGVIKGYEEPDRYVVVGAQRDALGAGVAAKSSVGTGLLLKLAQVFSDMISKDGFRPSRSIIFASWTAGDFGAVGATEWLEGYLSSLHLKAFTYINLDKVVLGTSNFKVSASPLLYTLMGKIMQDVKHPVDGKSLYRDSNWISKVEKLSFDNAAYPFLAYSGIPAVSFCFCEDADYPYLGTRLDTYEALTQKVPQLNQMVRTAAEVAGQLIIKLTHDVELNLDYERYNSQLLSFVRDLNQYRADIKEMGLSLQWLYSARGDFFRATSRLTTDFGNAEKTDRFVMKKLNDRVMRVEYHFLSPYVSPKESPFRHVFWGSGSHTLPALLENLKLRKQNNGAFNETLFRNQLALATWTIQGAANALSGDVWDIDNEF
Sequence of chimeric TfR A14 (human/mouse chimera) (P02786 other isoform, or with tags, fused parts or gaps mutant): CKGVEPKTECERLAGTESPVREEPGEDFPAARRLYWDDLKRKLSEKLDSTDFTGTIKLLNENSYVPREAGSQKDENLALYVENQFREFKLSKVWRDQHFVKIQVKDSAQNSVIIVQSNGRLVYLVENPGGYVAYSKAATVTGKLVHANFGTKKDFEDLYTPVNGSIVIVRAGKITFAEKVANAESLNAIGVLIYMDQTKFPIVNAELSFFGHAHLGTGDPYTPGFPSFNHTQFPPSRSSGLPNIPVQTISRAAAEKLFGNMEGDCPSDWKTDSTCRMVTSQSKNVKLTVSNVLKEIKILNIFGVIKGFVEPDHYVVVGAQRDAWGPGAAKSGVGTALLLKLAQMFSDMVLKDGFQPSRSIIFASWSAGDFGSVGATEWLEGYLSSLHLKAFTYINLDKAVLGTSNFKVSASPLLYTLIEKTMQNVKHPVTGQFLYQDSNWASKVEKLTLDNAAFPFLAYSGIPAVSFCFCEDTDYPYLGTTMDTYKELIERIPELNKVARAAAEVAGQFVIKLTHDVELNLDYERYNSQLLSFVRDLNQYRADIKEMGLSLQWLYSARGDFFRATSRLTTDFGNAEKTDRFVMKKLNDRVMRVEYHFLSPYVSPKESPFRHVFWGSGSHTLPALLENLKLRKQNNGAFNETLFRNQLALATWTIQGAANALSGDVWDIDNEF
Sequence of chimeric TfR A05 (human/mouse chimera) (P02786 other isoform, or with tags, fused parts or gaps mutant): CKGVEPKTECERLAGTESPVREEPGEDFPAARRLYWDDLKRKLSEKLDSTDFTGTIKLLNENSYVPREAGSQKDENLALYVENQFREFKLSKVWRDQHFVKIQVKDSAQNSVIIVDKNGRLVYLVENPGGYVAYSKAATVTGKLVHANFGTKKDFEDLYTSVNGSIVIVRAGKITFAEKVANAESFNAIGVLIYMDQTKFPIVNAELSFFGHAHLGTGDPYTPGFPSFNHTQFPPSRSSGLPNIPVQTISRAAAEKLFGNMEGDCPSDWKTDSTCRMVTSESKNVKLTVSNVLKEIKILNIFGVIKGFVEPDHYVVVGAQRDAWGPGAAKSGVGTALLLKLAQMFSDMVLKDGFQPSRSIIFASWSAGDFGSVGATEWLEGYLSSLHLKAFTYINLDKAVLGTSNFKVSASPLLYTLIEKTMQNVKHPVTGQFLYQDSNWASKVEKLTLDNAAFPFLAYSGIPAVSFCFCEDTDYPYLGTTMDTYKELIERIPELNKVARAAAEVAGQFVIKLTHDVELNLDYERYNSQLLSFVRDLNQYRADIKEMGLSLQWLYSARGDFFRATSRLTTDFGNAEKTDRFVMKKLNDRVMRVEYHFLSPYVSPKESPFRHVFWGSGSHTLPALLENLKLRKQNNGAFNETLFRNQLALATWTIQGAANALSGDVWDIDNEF
Sequence of chimeric TfR A07 (human/mouse chimera) (P02786 other isoform, or with tags, fused parts or gaps mutant): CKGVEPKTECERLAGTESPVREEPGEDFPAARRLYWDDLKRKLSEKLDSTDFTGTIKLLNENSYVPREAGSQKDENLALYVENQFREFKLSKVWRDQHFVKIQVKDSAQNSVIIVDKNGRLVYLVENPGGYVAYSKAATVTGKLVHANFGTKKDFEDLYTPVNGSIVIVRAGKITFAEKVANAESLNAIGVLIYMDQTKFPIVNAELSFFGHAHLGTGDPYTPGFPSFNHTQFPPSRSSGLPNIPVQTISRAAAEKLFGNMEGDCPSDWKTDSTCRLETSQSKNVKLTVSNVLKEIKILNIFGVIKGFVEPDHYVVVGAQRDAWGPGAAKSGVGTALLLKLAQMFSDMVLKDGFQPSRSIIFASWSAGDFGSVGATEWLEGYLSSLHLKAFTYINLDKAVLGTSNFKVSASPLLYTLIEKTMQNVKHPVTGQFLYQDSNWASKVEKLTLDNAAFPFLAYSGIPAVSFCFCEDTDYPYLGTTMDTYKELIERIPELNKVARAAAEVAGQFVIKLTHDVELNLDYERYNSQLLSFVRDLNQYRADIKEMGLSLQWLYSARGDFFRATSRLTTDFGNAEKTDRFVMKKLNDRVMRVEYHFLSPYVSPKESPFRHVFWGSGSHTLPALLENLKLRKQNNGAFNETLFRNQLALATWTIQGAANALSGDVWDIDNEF
Sequence of chimeric TfR A03 (human/mouse chimera) (P02786 other isoform, or with tags, fused parts or gaps mutant): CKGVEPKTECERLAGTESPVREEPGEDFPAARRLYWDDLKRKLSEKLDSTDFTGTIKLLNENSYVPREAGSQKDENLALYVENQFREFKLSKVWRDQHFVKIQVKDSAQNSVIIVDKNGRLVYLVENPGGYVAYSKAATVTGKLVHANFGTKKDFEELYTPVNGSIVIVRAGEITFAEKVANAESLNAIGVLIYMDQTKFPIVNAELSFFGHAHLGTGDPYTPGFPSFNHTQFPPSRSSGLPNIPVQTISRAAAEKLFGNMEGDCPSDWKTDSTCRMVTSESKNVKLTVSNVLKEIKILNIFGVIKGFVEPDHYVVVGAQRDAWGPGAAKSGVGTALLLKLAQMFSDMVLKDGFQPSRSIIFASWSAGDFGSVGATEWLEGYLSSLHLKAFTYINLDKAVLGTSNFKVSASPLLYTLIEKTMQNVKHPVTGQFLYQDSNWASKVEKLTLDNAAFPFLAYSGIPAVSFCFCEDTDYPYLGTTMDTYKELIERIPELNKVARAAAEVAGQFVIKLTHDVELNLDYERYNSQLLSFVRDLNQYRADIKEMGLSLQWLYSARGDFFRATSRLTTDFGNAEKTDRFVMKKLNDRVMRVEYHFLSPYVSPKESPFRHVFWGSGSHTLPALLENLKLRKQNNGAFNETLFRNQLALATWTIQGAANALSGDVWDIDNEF
Sequence of chimeric TfR A04 (human/mouse chimera) (P02786 other isoform, or with tags, fused parts or gaps mutant): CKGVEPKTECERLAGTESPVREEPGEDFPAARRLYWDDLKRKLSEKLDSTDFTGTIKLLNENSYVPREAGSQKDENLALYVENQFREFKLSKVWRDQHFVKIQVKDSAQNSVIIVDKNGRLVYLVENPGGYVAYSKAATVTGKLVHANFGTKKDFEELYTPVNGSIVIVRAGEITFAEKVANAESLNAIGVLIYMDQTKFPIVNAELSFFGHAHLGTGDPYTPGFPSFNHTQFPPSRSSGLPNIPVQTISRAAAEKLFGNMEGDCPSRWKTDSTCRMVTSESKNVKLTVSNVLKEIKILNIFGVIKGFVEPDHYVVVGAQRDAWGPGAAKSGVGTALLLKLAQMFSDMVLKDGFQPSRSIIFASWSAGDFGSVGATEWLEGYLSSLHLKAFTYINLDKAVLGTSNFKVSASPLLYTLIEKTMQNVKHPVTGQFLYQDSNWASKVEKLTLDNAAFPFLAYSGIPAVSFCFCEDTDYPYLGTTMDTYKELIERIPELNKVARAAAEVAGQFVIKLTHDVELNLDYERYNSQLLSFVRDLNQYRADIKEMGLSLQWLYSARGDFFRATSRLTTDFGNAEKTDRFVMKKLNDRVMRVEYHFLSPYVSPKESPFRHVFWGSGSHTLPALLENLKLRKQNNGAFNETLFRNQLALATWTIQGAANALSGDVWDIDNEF

| ratio of ELISA binding activity (A450-A570) to chimeric TfR over that to His-huTfR [1] | ratio of ELISA binding activity (A450-A570) to chimeric TfR over that to His-huTfR [2] | ratio of ELISA binding activity (A450-A570) to chimeric TfR over that to His-huTfR [3] | ratio of ELISA binding activity (A450-A570) to chimeric TfR over that to His-huTfR [4] | ratio of ELISA binding activity (A450-A570) to chimeric TfR over that to His-huTfR [5] | ratio of ELISA binding activity (A450-A570) to chimeric TfR over that to His-huTfR [6] | ratio of ELISA binding activity (A450-A570) to chimeric TfR over that to His-huTfR [7] | ratio of ELISA binding activity (A450-A570) to chimeric TfR over that to His-huTfR [8] | ratio of ELISA binding activity (A450-A570) to chimeric TfR over that to His-huTfR [9] | ratio of ELISA binding activity (A450-A570) to chimeric TfR over that to His-huTfR [10] | Binder |
| --- | --- | --- | --- | --- | --- | --- | --- | --- | --- | --- |
| < 0.2 | < 0.2 | > 0.5 | > 0.5 | 0.2 to 0.5 | > 0.5 | > 0.5 | > 0.5 |  |  | B1 |
| < 0.2 | < 0.2 | > 0.5 | 0.2 to 0.5 | 0.2 to 0.5 | > 0.5 | > 0.5 | > 0.5 |  |  | B2 |
| < 0.2 | < 0.2 | > 0.5 | 0.2 to 0.5 |  |  | > 0.5 | > 0.5 | < 0.2 | < 0.2 | B3 |
